Measurements taken from patent US20250262210A1 (TRUSTEES OF COLUMBIA UNIVERSITY IN THE CITY OF NEW YORK, published 2025).
Numbering of substitutions follows the chain as printed. One block for each binder: values may come before it.

Tests used:
LZTR1-FLAG = biological target: T1, LZTR1-FLAG (human, UniProt Q8N653 1-840); assay: IP/MS, LZTR1 wild type-FLAG, U87
T1 construct: Expressed in HEK 293T, HeLa or U87 cells; used as cell lysate; also called LZTR1 wild type-FLAG; LZTR1 WT; not shown: FLAG tag at the C-terminus
T1 sequence (looked up): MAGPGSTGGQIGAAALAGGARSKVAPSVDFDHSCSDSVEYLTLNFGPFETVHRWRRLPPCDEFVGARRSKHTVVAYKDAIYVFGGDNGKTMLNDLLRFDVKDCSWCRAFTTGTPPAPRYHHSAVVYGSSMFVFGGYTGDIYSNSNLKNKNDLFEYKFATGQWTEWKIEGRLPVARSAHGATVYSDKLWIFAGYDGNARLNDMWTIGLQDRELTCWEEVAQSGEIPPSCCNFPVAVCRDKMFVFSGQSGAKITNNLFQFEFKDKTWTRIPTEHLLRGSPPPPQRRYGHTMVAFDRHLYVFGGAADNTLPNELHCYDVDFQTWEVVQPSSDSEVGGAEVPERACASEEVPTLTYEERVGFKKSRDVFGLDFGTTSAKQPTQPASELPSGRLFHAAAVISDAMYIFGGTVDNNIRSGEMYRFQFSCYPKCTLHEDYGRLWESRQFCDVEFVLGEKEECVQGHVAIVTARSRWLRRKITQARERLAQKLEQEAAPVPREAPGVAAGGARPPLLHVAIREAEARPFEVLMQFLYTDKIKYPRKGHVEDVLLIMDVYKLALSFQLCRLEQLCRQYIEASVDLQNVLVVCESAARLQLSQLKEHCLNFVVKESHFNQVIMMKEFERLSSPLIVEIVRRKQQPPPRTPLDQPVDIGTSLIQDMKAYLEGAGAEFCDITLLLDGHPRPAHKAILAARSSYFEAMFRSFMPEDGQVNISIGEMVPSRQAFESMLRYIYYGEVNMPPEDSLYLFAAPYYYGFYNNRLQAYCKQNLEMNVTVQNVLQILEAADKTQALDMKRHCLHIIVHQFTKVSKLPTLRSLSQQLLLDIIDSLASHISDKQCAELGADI
Procedure: (§1) Lysates were immunoprecipitated with FLAG affinity matrix and eluted with FLAG peptide. […] Protein gel slices were excised and in-gel digestion performed as previously described (83), with minor modifications. Gel slices were washed with 1:1 A cetonitrile and 100 mM ammonium bicarbonate for 30 min then dehydrated with 100% acetonitrile for 10 min until shrunk. The excess acetonitrile was then removed and the slices dried in speed-vacuum at room temperature for 10 min. Gel slices were reduced with 5 mM DTT for 30 min at 56° C. in an air thermostat, cooled down to room temperature, and alkylated with 11 mM IAA for 30 min with no light. Gel slices were then washed with 100 mM of ammonium bicarbonate and 100% acetonitrile for 10 min each. Excess acetonitrile was removed and dried in a speed-vacuum for 10 min at room temperature and the gel slices were re-hydrated in a solution of 25 ng/μl trypsin in 50 mM ammonium bicarbonate for 30 min on ice and digested overnight at 37° C. in an air thermostat. Digested peptides were collected and further extracted from gel slices in extraction buffer (1:2 ratio by volume of 5% formic acid:acetonitrile) at high speed, shaking in an air thermostat. The supernatants from both extractions were combined and dried in a speed-vacuum. Peptides were dissolved in 3% acetonitrile/0.1% formic acid. Desalted peptides were injected in an EASY-Spray™ PepMap™ RSLC C18 50 cm×[…] column (Thermo Scientific) connected to an Orbitrap Fusion™ Tribrid™ (Thermo Scientific) as described in “Global ubiquitylation enrichment” section. The following modifications were used for protein identification and quantification: oxidation of methionine (M), acetylation of the protein N-terminus, and deamination for asparagine or glutamine (NQ). Results obtained from MaxQuant were assembled in Scaffold for data visualization.

LZTR1 R810W-FLAG = biological target: T2, LZTR1 R810W-FLAG (human, UniProt Q8N653 1-840); assay: IP/MS, LZTR1 R810W-FLAG, U87
T2 construct: Stably expressed in U87 cells by lentivirus; also called LZTR1-FLAG-R810W; LZTR1 RW; not shown: FLAG tag
T2 sequence (looked up): T1 sequence (looked up) with R810W
Procedure: as §1

B1: APPL1 (other, human, UniProt Q9UKG1 1-709, looked up)
chain: MPGIDKLPIEETLEDSPQTRSLLGVFEEDATAISNYMNQLYQAMHRIYDAQNELSAATHLTSKLLKEYEKQRFPLGGDDEVMSSTLQQFSKVIDELSSCHAVLSTQLADAMMFPITQFKERDLKEILTLKEVFQIASNDHDAAINRYSRLSKKRENDKVKYEVTEDVYTSRKKQHQTMMHYFCALNTLQYKKKIALLEPLLGYMQAQISFFKMGSENLNEQLEEFLANIGTSVQNVRREMDSDIETMQQTIEDLEVASDPLYVPDPDPTKFPVNRNLTRKAGYLNARNKTGLVSSTWDRQFYFTQGGNLMSQARGDVAGGLAMDIDNCSVMAVDCEDRRYCFQITSFDGKKSSILQAESKKDHEEWICTINNISKQIYLSENPEETAARVNQSALEAVTPSPSFQQRHESLRPAAGQSRPPTARTSSSGSLGSESTNLAALSLDSLVAPDTPIQFDIISPVCEDQPGQAKAFGQGGRRTNPFGESGGSTKSETEDSILHQLFIVRFLGSMEVKSDDHPDVVYETMRQILAARAIHNIFRMTESHLLVTCDCLKLIDPQTQVTRLTFPLPCVVLYATHQENKRLFGFVLRTSSGRSESNLSSVCYIFESNNEGEKICDSVGLAKQIALHAELDRRASEKQKEIERVKEKQQKELNKQKQIEKDLEEQSRLIAASSRPNQASSEGQFVVLSSSQSEESDLGEGGKKRESEA
binding result (LZTR1-FLAG): binds | binding result (LZTR1 R810W-FLAG): binds

B2: ATF6 (other, human, UniProt P18850 1-670, looked up)
chain: MGEPAGVAGTMESPFSPGLFHRLDEDWDSALFAELGYFTDTDELQLEAANETYENNFDNLDFDLDLMPWESDIWDINNQICTVKDIKAEPQPLSPASSSYSVSSPRSVDSYSSTQHVPEELDLSSSSQMSPLSLYGENSNSLSSAEPLKEDKPVTGPRNKTENGLTPKKKIQVNSKPSIQPKPLLLPAAPKTQTNSSVPAKTIIIQTVPTLMPLAKQQPIISLQPAPTKGQTVLLSQPTVVQLQAPGVLPSAQPVLAVAGGVTQLPNHVVNVVPAPSANSPVNGKLSVTKPVLQSTMRNVGSDIAVLRRQQRMIKNRESACQSRKKKKEYMLGLEARLKAALSENEQLKKENGTLKRQLDEVVSENQRLKVPSPKRRVVCVMIVLAFIILNYGPMSMLEQDSRRMNPSVSPANQRRHLLGFSAKEAQDTSDGIIQKNSYRYDHSVSNDKALMVLTEEPLLYIPPPPCQPLINTTESLRLNHELRGWVHRHEVERTKSRRMTNNQQKTRILQGALEQGSNSQLMAVQYTETTSSISRNSGSELQVYYASPRSYQDFFEAIRRRGDTFYVVSFRRDHLLLPATTHNKTTRPKMSIVLPAININENVINGQDYEVMMQIDCQVMDTRILHIKSSSVPPYLRDQQRNQTNTFFGSPPAATEATHVVSTIPESLQ
binding result (LZTR1-FLAG): binds | binding result (LZTR1 R810W-FLAG): binds

The remaining lines, values ahead:

binding result (LZTR1-FLAG): binds | binding result (LZTR1 R810W-FLAG): binds
B3: ATG13 (other, human, UniProt O75143 1-517, looked up)
chain: METDLNSQDRKDLDKFIKFFALKTVQVIVQARLGEKICTRSSSSPTGSDWFNLAIKDIPEVTHEAKKALAGQLPAVGRSMCVEISLKTSEGDSMELEIWCLEMNEKCDKEIKVSYTVYNRLSLLLKSLLAITRVTPAYRLSRKQGHEYVILYRIYFGEVQLSGLGEGFQTVRVGTVGTPVGTITLSCAYRINLAFMSTRQFERTPPIMGIIIDHFVDRPYPSSSPMHPCNYRTAGEDTGVIYPSVEDSQEVCTTSFSTSPPSQLSSSRLSYQPAALGVGSADLAYPVVFAAGLNATHPHQLMVPGKEGGVPLAPNQPVHGTQADQERLATCTPSDRTHCAATPSSSEDTETVSNSSEGRASPHDVLETIFVRKVGAFVNKPINQVTLTSLDIPFAMFAPKNLELEDTDPMVNPPDSPETESPLQGSLHSDGSSGGSSGNTHDDFVMIDFKPAFSKDDILPMDLGTFYREFQNPPQLSSLSIDIGAQSMAEDLDSLPEKLAVHEKNVREFDAFVETLQ

binding result (LZTR1-FLAG): binds | binding result (LZTR1 R810W-FLAG): binds
B4: ATF6B (other, human, UniProt Q99941 2-703, looked up)
chain: AELMLLSEIADPTRFFTDNLLSPEDWGLQNSTLYSGLDEVAEEQTQLFRCPEQDVPFDGSSLDVGMDVSPSEPPWELLPIFPDLQVKSEPSSPCSSSSLSSESSRLSTEPSSEALGVGEVLHVKTESLAPPLCLLGDDPTSSFETVQINVIPTSDDSSDVQTKIEPVSPCSSVNSEASLLSADSSSQAFIGEEVLEVKTESLSPSGCLLWDVPAPSLGAVQISMGPSLDGSSGKALPTRKPPLQPKPVVLTTVPMPSRAVPPSTTVLLQSLVQPPPVSPVVLIQGAIRVQPEGPAPSLPRPERKSIVPAPMPGNSCPPEVDAKLLKRQQRMIKNRESACQSRRKKKEYLQGLEARLQAVLADNQQLRRENAALRRRLEALLAENSELKLGSGNRKVVCIMVFLLFIAFNFGPVSISEPPSAPISPRMNKGEPQPRRHLLGFSEQEPVQGVEPLQGSSQGPKEPQPSPTDQPSFSNLTAFPGGAKELLLRDLDQLFLSSDCRHFNRTESLRLADELSGWVQRHQRGRRKIPQRAQERQKSQPRKKSPPVKAVPIQPPGPPERDSVGQLQLYRHPDRSQPAFLDAIDRREDTFYVVSFRRDHLLLPAISHNKTSRPKMSLVMPAMAPNETLSGRGAPGDYEEMMQIECEVMDTRVIHIKTSTVPPSLRKQPSPTPGNATGGPLPVSAASQAHQASHQPLYLNHP

binding result (LZTR1-FLAG): binds | binding result (LZTR1 R810W-FLAG): binds
B5: ARMCX2 (other, human, UniProt Q7L311 1-632, looked up)
chain: MSRVRDAGCVAAGIVIGAGAWYCVYKYTRGRDQTKKRMAKPKNRAVAGTGARARAGLRAGFTIDLGSGFSPPTPVRAEAEDRAQDEASALDTVGAEAVAPAASSAEAQSGAGSQAQEADGAGVGPKAESVVGAAMASAIAPPPGVTEALGAAEAPAMAGAPKVAEAPREAETSRAAVPPGTVVPTEAAAPTEVTEGPGVAAPTKVAEAPGVASPTEAAEAPVPATPTGAAAPTGAAESPGTSGSPRTAVVPGTSAAKKATPGAHTGAIPKATSATGAVPKGGGKGVTRSRNGGKGKGKKSKVEVDELGMGFRPGDGAAAAAAASANGGQAFLAEVPDSEEGESGWTDTESDSDSEPETQRRGRGRRPVAMQKRPFPYEIDEILGVRDLRKVLALLQKSDDPFIQQVALLTLSNNANYSCNQETIRKLGGLPIIANMINKTDPHIKEKALMAMNNLSENYENQGRLQVYMNKVMDDIMASNLNSAVQVVGLKFLTNMTITNDYQHLLVNSIANFFRLLSQGGGKIKVEILKILSNFAENPDMLKKLLSTQVPASFSSLYNSYVESEILINALTLFEIIYDNLRAEVFNYREFNKGSLFYLCTTSGVCVKKIRALANHHDLLVKVKVIKLVNKF
